Values of other authors in patent publication US20150056205A1, “STEROID SPARING AGENTS AND METHODS OF USING SAME” (BIOGEN IDEC MA INC., priority 2004, published 2015).

Columns and labels:
[1] = target: VLA-4 (Homo sapiens, UniProt P13612); details: cited from earlier work
[2] = target: T1, α4 subunit of VLA-4 (Homo sapiens, UniProt P13612); details: rat brain cells stimulated with tumor necrosis factor; cited from earlier work
T1 construct: endogenous in cells; host or cells: human lymphocytes (adhering to TNF-stimulated rat brain cell cultures)

B1: mu MAb 21.6: mouse monoclonal antibody specific for the α4 subunit of VLA-4; donor immunoglobulin for the humanized antibodies (antibody, V domains shown)
VH: MKCSWVMFFLMAVVTGVNSEVQLQQSGAELVKPGASVKLSCTASGFNIKDTYIHCVKQRPEQGLEWIGRIDPANGYTKYDPKFQGKATITADTSSNTAYLQLSSLTSEDTAVYFCAREGYYGNYGVYAMDYWGQGTSVTV
VL: DIQMTQSPSSLSASLGGKVTITCKTSQDINKYMAWYQHKPGKRPRLLIHYTSALQPGIPSRFSGSGSGRDYSFNISNLEPEDIATYYCLQYDNLWTFGGGTKLEIK
binding affinity for VLA-4 [1]: about 10^9 M^−1
inhibition of human lymphocyte binding to tissue cultures of rat brain cells [2]: inhibit human lymphocyte binding
